Here are results for twelve molecules from patent EP4702992A1 (CSPC Megalith Biopharmaceutical Co., Ltd., dated 2024).

The target of assay [1] is T1, recombinant human DLL3 protein (Kactus Biosystems, Cat. No. DLL-HM103) (human, UniProt Q9NYJ7 27-492, limits assumed).
T1 construct: Bought protein coated on the ELISA plate; also called Human DLL3 proteins
T1 sequence (looked up): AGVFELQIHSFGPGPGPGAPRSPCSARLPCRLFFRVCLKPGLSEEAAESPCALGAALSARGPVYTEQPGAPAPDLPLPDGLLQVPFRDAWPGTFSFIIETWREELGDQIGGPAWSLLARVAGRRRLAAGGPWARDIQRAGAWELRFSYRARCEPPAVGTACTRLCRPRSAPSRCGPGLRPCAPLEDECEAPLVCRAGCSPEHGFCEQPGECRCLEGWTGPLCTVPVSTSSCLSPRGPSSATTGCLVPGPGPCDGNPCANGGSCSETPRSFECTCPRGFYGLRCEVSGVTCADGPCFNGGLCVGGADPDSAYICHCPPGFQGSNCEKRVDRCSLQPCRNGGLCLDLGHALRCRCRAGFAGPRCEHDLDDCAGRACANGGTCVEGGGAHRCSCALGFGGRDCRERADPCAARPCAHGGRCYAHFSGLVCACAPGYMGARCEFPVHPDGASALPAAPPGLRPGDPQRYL
Nature of the assay: ELISA, human DLL3 coated at 0.1 µg/mL, absorbance at 450 nm. Background: ELISA stands for enzyme-linked immunosorbent assay.

Assay [2] has as its target T2, B7H3 antigen on the surface of A375 cells (human, UniProt Q5ZPR3 29-534).
T2 construct: whole, on cells
T2 sequence (looked up): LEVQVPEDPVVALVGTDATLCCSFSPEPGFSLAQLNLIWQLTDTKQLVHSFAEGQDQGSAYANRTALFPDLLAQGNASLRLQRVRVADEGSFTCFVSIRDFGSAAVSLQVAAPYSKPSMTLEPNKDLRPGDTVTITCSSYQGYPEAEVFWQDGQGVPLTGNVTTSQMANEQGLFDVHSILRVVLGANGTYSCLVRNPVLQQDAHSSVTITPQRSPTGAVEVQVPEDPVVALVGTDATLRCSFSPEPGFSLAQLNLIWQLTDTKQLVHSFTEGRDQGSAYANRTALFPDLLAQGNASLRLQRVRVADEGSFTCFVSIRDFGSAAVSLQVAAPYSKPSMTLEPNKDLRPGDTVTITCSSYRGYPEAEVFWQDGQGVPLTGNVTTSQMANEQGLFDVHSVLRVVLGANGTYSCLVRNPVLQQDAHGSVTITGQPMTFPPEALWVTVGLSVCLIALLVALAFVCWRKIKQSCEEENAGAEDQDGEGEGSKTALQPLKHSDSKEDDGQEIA
The assay is described as follows: flow cytometry (MFI) on B7H3-positive A375 cells, anti-human Alexa Fluor 488. A general note: A flow cytometer gives signals particle by particle.

Assay [3] concerns the target T3, FOLR1 antigen (Sino Biological, Cat. No. 11241-H08H) (UniProt P15328 25-233).
T3 construct: Bought protein coated on the ELISA plate; also called FRα
The assay is described as follows: ELISA, FOLR1 coated at 0.1 µg/mL, anti-human IgG-HRP detection.

As usually defined, the EC50 is the concentration that produces a half-maximal response.

T3 sequence (P15328 25-233 limits assumed): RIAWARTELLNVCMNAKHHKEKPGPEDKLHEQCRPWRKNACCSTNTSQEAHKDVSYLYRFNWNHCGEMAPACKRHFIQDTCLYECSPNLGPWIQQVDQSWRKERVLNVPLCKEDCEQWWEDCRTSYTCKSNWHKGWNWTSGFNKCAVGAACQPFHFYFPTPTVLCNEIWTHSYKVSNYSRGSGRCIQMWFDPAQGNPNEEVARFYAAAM

B1: 33B (antibody, human IgG1, kappa, L234A L235A, V domains shown)
VH: QVQLVQSGAEVKKPGASVKVSCKASGYTFTDYYMKWVRQAPGQRLEWMGAFNLNNGDTFYNQKFKGRVTITRDTSASTAYMELSSLRSEDTAVYYCARDVYGYGDYWGQGTSVTVSS
VL: DIVMTQSPDSLAVSLGERATINCRASKSVSTSGYSYMHWYQQKPGQPPKLLIYLASNLDSGVPDRFSGSGSGTDFTLTISSLQAEDVAVYYCQHSRELPYTFGGGTKLEIKR
notes: Naked anti-DLL3 antibody
Consider B1, for which, in assay [1], the EC50 is 1.87 pM and the Emax came to 2.5.

B2: D-ADC55-1-8 (antibody, human IgG1, kappa, L234A L235A, V domains shown)
VH: QVQLVQSGAEVKKPGASVKVSCKASGYTFTDYYMKWVRQAPGQRLEWMGAFNLNNGDTFYNQKFKGRVTITRDTSASTAYMELSSLRSEDTAVYYCARDVYGYGDYWGQGTSVTVSS
VL: DIVMTQSPDSLAVSLGERATINCRASKSVSTSGYSYMHWYQQKPGQPPKLLIYLASNLDSGVPDRFSGSGSGTDFTLTISSLQAEDVAVYYCQHSRELPYTFGGGTKLEIKR
modifications: linker-drug LD55-1 (exatecan payload) conjugated to sulfhydryls of reduced interchain disulfide cysteines; average DAR 8.0 per antibody
notes: Antibody-drug conjugate: 33B + LD55-1, DAR 8.0
Take B2: in assay [1], the EC50 is 6.28 pM and the Emax was 2.5.

B3: D-ADC12-1-8 (antibody, human IgG1, kappa, L234A L235A, V domains shown)
VH: QVQLVQSGAEVKKPGASVKVSCKASGYTFTDYYMKWVRQAPGQRLEWMGAFNLNNGDTFYNQKFKGRVTITRDTSASTAYMELSSLRSEDTAVYYCARDVYGYGDYWGQGTSVTVSS
VL: DIVMTQSPDSLAVSLGERATINCRASKSVSTSGYSYMHWYQQKPGQPPKLLIYLASNLDSGVPDRFSGSGSGTDFTLTISSLQAEDVAVYYCQHSRELPYTFGGGTKLEIKR
modifications: linker-drug LD12-1 (exatecan payload) conjugated to sulfhydryls of reduced interchain disulfide cysteines; average DAR 8.0 per antibody
notes: Antibody-drug conjugate: 33B + LD12-1, DAR 8.0
For the molecule B3, in assay [1], the EC50 was determined as 5.84 pM and the Emax came to 2.6.

B4: D-BATADC (antibody, human IgG1, kappa, L234A L235A, V domains shown)
VH: QVQLVQSGAEVKKPGASVKVSCKASGYTFTDYYMKWVRQAPGQRLEWMGAFNLNNGDTFYNQKFKGRVTITRDTSASTAYMELSSLRSEDTAVYYCARDVYGYGDYWGQGTSVTVSS
VL: DIVMTQSPDSLAVSLGERATINCRASKSVSTSGYSYMHWYQQKPGQPPKLLIYLASNLDSGVPDRFSGSGSGTDFTLTISSLQAEDVAVYYCQHSRELPYTFGGGTKLEIKR
modifications: control linker-drug BATLD conjugated to the antibody; average DAR 7.7 per antibody
As for B4, in assay [1], the concentration for a half-maximal effect (EC50) turned out to be 5.27 pM and the Emax stood at 2.6.

B5: D-ADC2-1-8 (antibody, human IgG1, kappa, L234A L235A, V domains shown)
VH: QVQLVQSGAEVKKPGASVKVSCKASGYTFTDYYMKWVRQAPGQRLEWMGAFNLNNGDTFYNQKFKGRVTITRDTSASTAYMELSSLRSEDTAVYYCARDVYGYGDYWGQGTSVTVSS
VL: DIVMTQSPDSLAVSLGERATINCRASKSVSTSGYSYMHWYQQKPGQPPKLLIYLASNLDSGVPDRFSGSGSGTDFTLTISSLQAEDVAVYYCQHSRELPYTFGGGTKLEIKR
modifications: linker-drug LD2-1 (exatecan payload) conjugated to sulfhydryls of reduced interchain disulfide cysteines; average DAR 8.0 per antibody
notes: Antibody-drug conjugate: 33B + LD2-1, DAR 8.0
On to B5, for which, in assay [1], the EC50 was found to be 4.64 pM and the Emax is 2.5.

B6: B-ADC55-1-6 (antibody, human IgG1, kappa, L234A L235A, V domains shown)
VH: QVQLVQSGAEVKKPGASVKVSCKASGYTFTDYFMNWVRQAPGQGLEWMGDVNPKTGSPSYNQKFKGRVTMTRDTSTSTVYMELSSLRSEDTAVYYCARRYGFLYSMDYWGQGTSVTVSS
VL: DIQMTQSPSSLSASVGDRVTITCRASQDISNYLNWYQQKPGKAVKVLIYYTSRLHSGVPSRFSGSGSGTDFTFTISSLQPEDIATYYCQQGNTHPFTFGGGTKVEIKR
modifications: linker-drug LD55-1 (exatecan payload) conjugated to sulfhydryls of reduced interchain disulfide cysteines; average DAR 5.7 per antibody
notes: Antibody-drug conjugate: 43B + LD55-1, DAR 5.7
B6 yielded an EC50 in assay [2] of 0.0378 µg/mL.

B7: B-ADC12-1-6 (antibody, human IgG1, kappa, L234A L235A, V domains shown)
VH: QVQLVQSGAEVKKPGASVKVSCKASGYTFTDYFMNWVRQAPGQGLEWMGDVNPKTGSPSYNQKFKGRVTMTRDTSTSTVYMELSSLRSEDTAVYYCARRYGFLYSMDYWGQGTSVTVSS
VL: DIQMTQSPSSLSASVGDRVTITCRASQDISNYLNWYQQKPGKAVKVLIYYTSRLHSGVPSRFSGSGSGTDFTFTISSLQPEDIATYYCQQGNTHPFTFGGGTKVEIKR
modifications: linker-drug LD12-1 (exatecan payload) conjugated to sulfhydryls of reduced interchain disulfide cysteines; average DAR 6.0 per antibody
notes: Antibody-drug conjugate: 43B + LD12-1, DAR 6.0
In turn, B7 gave an EC50 in assay [2] of 0.04 µg/mL.

B8: B-ADC2-1-6 (antibody, human IgG1, kappa, L234A L235A, V domains shown)
VH: QVQLVQSGAEVKKPGASVKVSCKASGYTFTDYFMNWVRQAPGQGLEWMGDVNPKTGSPSYNQKFKGRVTMTRDTSTSTVYMELSSLRSEDTAVYYCARRYGFLYSMDYWGQGTSVTVSS
VL: DIQMTQSPSSLSASVGDRVTITCRASQDISNYLNWYQQKPGKAVKVLIYYTSRLHSGVPSRFSGSGSGTDFTFTISSLQPEDIATYYCQQGNTHPFTFGGGTKVEIKR
modifications: linker-drug LD2-1 (exatecan payload) conjugated to sulfhydryls of reduced interchain disulfide cysteines; average DAR 5.6 per antibody
notes: Antibody-drug conjugate: 43B + LD2-1, DAR 5.6
Molecule B8 had an EC50 in assay [2] of 0.0416 µg/mL.

B9: Farletuzumab (antibody, human IgG1, kappa)
heavy: not shown
light: DIQLTQSPSSLSASVGDRVTITCSVSSSISSNNLHWYQQKPGKAPKPWIYGTSNLASGVPSRFSGSGSGTDYTFTISSLQPEDIATYYCQQWSSYPYMYTFGQGTKVEIKRTVAAPSVFIFPPSDEQLKSGTASVVCLLNNFYPREAKVQWKVDNALQSGNSQESVTEQDSKDSTYSLSSTLTLSKADYEKHKVYACEVTHQGLSSPVTKSFNRGEC
notes: Naked anti-FRα antibody
With B9, in assay [3], the midpoint of the response, the EC50, lay at 26.1 pM.

B10: F-ADC55-1-8 (antibody, human IgG1, kappa)
heavy: not shown
light: DIQLTQSPSSLSASVGDRVTITCSVSSSISSNNLHWYQQKPGKAPKPWIYGTSNLASGVPSRFSGSGSGTDYTFTISSLQPEDIATYYCQQWSSYPYMYTFGQGTKVEIKRTVAAPSVFIFPPSDEQLKSGTASVVCLLNNFYPREAKVQWKVDNALQSGNSQESVTEQDSKDSTYSLSSTLTLSKADYEKHKVYACEVTHQGLSSPVTKSFNRGEC
modifications: linker-drug LD55-1 (exatecan payload) conjugated to sulfhydryls of reduced interchain disulfide cysteines; average DAR 7.6 per antibody
notes: Antibody-drug conjugate: farletuzumab + LD55-1, DAR 7.6
In assay [3], B10 showed an EC50 of 36.9 pM.

B11: Farletuzumab-FcS (antibody, human IgG1, kappa, L234A L235A)
heavy: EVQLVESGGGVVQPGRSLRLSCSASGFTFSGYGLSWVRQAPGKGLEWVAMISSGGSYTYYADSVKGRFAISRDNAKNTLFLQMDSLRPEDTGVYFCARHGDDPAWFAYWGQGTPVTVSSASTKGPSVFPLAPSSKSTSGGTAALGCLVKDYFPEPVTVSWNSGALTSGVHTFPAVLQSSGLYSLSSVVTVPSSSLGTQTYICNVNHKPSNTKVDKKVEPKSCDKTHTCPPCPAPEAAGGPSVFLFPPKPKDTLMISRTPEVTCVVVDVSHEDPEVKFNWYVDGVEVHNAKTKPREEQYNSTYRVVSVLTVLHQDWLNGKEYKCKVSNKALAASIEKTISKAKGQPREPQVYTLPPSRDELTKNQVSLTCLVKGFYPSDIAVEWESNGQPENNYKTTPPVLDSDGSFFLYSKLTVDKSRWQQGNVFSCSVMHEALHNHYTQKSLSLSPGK
light: DIQLTQSPSSLSASVGDRVTITCSVSSSISSNNLHWYQQKPGKAPKPWIYGTSNLASGVPSRFSGSGSGTDYTFTISSLQPEDIATYYCQQWSSYPYMYTFGQGTKVEIKRTVAAPSVFIFPPSDEQLKSGTASVVCLLNNFYPREAKVQWKVDNALQSGNSQESVTEQDSKDSTYSLSSTLTLSKADYEKHKVYACEVTHQGLSSPVTKSFNRGEC
notes: also called Farletuzumab-FS
Regarding B11, the EC50 in assay [3] was 19.9 pM.

B12: DSADC (antibody, V domains shown)
VH: QVQLVQSGAEVKKPGSSVKVSCKASGYTFTNYVMHWVRQAPGQGLEWMGYINPYNDDVKYNEKFKGRVTITADESTSTAYMELSSLRSEDTAVYYCARWGYYGSPLYYFDYWGQGTLVTVSS
VL: EIVLTQSPATLSLSPGERATLSCRASSRLIYMHWYQQKPGQAPRPLIYATSNLASGIPARFSGSGSGTDFTLTISSLEPEDFAVYYCQQWNSNPPTFGQGTKVEIKR
modifications: control linker-drug per CN104755494A conjugated to the antibody; average DAR 3.9 per antibody
notes: Control anti-B7H3 ADC; the tie of DSADC to M30 is by position and a drawing only; also called M30 antibody conjugate
In assay [2], B12 showed an EC50 of 0.0925 µg/mL.
